The Human Domainome abundance scans (Beltran et al. 2025)
± gives the uncertainty stated by the source.

B1: Apoptosis-associated speck-like protein containing a CARD, residues 114 to 194; numbered along this chain, Q9ULZ3 (parent)
chain: FIDQHRAALIARVTNVEWLLDALYGKVLTDEQYQAVRAEPTNPSKMRKLFSFTPAWNWTCKDLLLQALRESQSYLVEDLER

Variants of: B1
Assay: abundance fitness (aPCA) (normalised: wild type 0, dead -1); higher = more abundant; growth selection in yeast, the domain comes from the species named
Conditions: Homo sapiens
FIDQHRAALIARVTNVEWLLDALYGKVLTDEQYQAVRAEPTNPSKMRKLFSFTPAWNWTCKDLLHQALRESQSYLVEDLER [L65H] showed an abundance fitness of -0.143 ± 0.099. With FIDQHRAALIARVTNVEWLLDALYGKVLTDEQYQAVRAEPTNPSKMRKLFSFTPAWNWTCKDLLIQALRESQSYLVEDLER [L65I] the abundance fitness was -0.338 ± 0.099. Work on FIDQHRAALIARVTNVEWLLDALYGKVLTDEQYQAVRAEPTNPSKMRKLFSFTPAWNWTCKDLLMQALRESQSYLVEDLER [L65M] yielded an abundance fitness of -0.194 ± 0.091. FIDQHRAALIARVTNVEWLLDALYGKVLTDEQYQAVRAEPTNPSKMRKLFSFTPAWNWTCKDLLNQALRESQSYLVEDLER [L65N] showed an abundance fitness of -0.548 ± 0.21. Variant FIDQHRAALIARVTNVEWLLDALYGKVLTDEQYQAVRAEPTNPSKMRKLFSFTPAWNWTCKDLLPQALRESQSYLVEDLER [L65P] has an abundance fitness of -0.939 ± 0.23. For FIDQHRAALIARVTNVEWLLDALYGKVLTDEQYQAVRAEPTNPSKMRKLFSFTPAWNWTCKDLLQQALRESQSYLVEDLER [L65Q], the abundance fitness was -0.812 ± 0.18. Variant FIDQHRAALIARVTNVEWLLDALYGKVLTDEQYQAVRAEPTNPSKMRKLFSFTPAWNWTCKDLLRQALRESQSYLVEDLER [L65R] has an abundance fitness of -0.361 ± 0.068. With FIDQHRAALIARVTNVEWLLDALYGKVLTDEQYQAVRAEPTNPSKMRKLFSFTPAWNWTCKDLLSQALRESQSYLVEDLER [L65S] the abundance fitness was -0.512 ± 0.07. With FIDQHRAALIARVTNVEWLLDALYGKVLTDEQYQAVRAEPTNPSKMRKLFSFTPAWNWTCKDLLTQALRESQSYLVEDLER [L65T] the abundance fitness was -0.343 ± 0.096. FIDQHRAALIARVTNVEWLLDALYGKVLTDEQYQAVRAEPTNPSKMRKLFSFTPAWNWTCKDLLWQALRESQSYLVEDLER [L65W] showed an abundance fitness of -0.172 ± 0.066. FIDQHRAALIARVTNVEWLLDALYGKVLTDEQYQAVRAEPTNPSKMRKLFSFTPAWNWTCKDLLYQALRESQSYLVEDLER [L65Y] showed an abundance fitness of -0.098 ± 0.14. In the case of FIDQHRAALIARVTNVEWLLDALYGKVLTDEQYQAVRAEPTNPSKMRKLFSFTPAWNWTCKDLLLAALRESQSYLVEDLER [Q66A], the abundance fitness is reported as -0.371 ± 0.049. FIDQHRAALIARVTNVEWLLDALYGKVLTDEQYQAVRAEPTNPSKMRKLFSFTPAWNWTCKDLLLCALRESQSYLVEDLER [Q66C] gave an abundance fitness of -0.487 ± 0.078. FIDQHRAALIARVTNVEWLLDALYGKVLTDEQYQAVRAEPTNPSKMRKLFSFTPAWNWTCKDLLLDALRESQSYLVEDLER [Q66D] gave an abundance fitness of -0.174 ± 0.1. Variant FIDQHRAALIARVTNVEWLLDALYGKVLTDEQYQAVRAEPTNPSKMRKLFSFTPAWNWTCKDLLLEALRESQSYLVEDLER [Q66E] has an abundance fitness of -0.148 ± 0.079. For FIDQHRAALIARVTNVEWLLDALYGKVLTDEQYQAVRAEPTNPSKMRKLFSFTPAWNWTCKDLLLHALRESQSYLVEDLER [Q66H], the abundance fitness was -0.695 ± 0.37. With FIDQHRAALIARVTNVEWLLDALYGKVLTDEQYQAVRAEPTNPSKMRKLFSFTPAWNWTCKDLLLIALRESQSYLVEDLER [Q66I] the abundance fitness was -0.178 ± 0.16. In the case of FIDQHRAALIARVTNVEWLLDALYGKVLTDEQYQAVRAEPTNPSKMRKLFSFTPAWNWTCKDLLLKALRESQSYLVEDLER [Q66K], the abundance fitness is reported as -0.059 ± 0.089. FIDQHRAALIARVTNVEWLLDALYGKVLTDEQYQAVRAEPTNPSKMRKLFSFTPAWNWTCKDLLLLALRESQSYLVEDLER [Q66L] gave an abundance fitness of -0.6 ± 0.078. Work on FIDQHRAALIARVTNVEWLLDALYGKVLTDEQYQAVRAEPTNPSKMRKLFSFTPAWNWTCKDLLLMALRESQSYLVEDLER [Q66M] yielded an abundance fitness of -0.252 ± 0.11. FIDQHRAALIARVTNVEWLLDALYGKVLTDEQYQAVRAEPTNPSKMRKLFSFTPAWNWTCKDLLLNALRESQSYLVEDLER [Q66N] showed an abundance fitness of -0.529 ± 0.27. FIDQHRAALIARVTNVEWLLDALYGKVLTDEQYQAVRAEPTNPSKMRKLFSFTPAWNWTCKDLLLPALRESQSYLVEDLER [Q66P] gave an abundance fitness of -0.48 ± 0.085. Variant FIDQHRAALIARVTNVEWLLDALYGKVLTDEQYQAVRAEPTNPSKMRKLFSFTPAWNWTCKDLLLRALRESQSYLVEDLER [Q66R] has an abundance fitness of -0.026 ± 0.045. FIDQHRAALIARVTNVEWLLDALYGKVLTDEQYQAVRAEPTNPSKMRKLFSFTPAWNWTCKDLLLSALRESQSYLVEDLER [Q66S] gave an abundance fitness of -0.322 ± 0.066. With FIDQHRAALIARVTNVEWLLDALYGKVLTDEQYQAVRAEPTNPSKMRKLFSFTPAWNWTCKDLLLTALRESQSYLVEDLER [Q66T] the abundance fitness was -0.323 ± 0.081. FIDQHRAALIARVTNVEWLLDALYGKVLTDEQYQAVRAEPTNPSKMRKLFSFTPAWNWTCKDLLLVALRESQSYLVEDLER [Q66V] gave an abundance fitness of -0.481 ± 0.084. In the case of FIDQHRAALIARVTNVEWLLDALYGKVLTDEQYQAVRAEPTNPSKMRKLFSFTPAWNWTCKDLLLWALRESQSYLVEDLER [Q66W], the abundance fitness is reported as -0.801 ± 0.13. With FIDQHRAALIARVTNVEWLLDALYGKVLTDEQYQAVRAEPTNPSKMRKLFSFTPAWNWTCKDLLLQCLRESQSYLVEDLER [A67C] the abundance fitness was -0.629 ± 0.13. FIDQHRAALIARVTNVEWLLDALYGKVLTDEQYQAVRAEPTNPSKMRKLFSFTPAWNWTCKDLLLQDLRESQSYLVEDLER [A67D] gave an abundance fitness of -1.02 ± 0.27. Variant FIDQHRAALIARVTNVEWLLDALYGKVLTDEQYQAVRAEPTNPSKMRKLFSFTPAWNWTCKDLLLQHLRESQSYLVEDLER [A67H] has an abundance fitness of -0.766 ± 0.33. With FIDQHRAALIARVTNVEWLLDALYGKVLTDEQYQAVRAEPTNPSKMRKLFSFTPAWNWTCKDLLLQILRESQSYLVEDLER [A67I] the abundance fitness was -0.372 ± 0.19. FIDQHRAALIARVTNVEWLLDALYGKVLTDEQYQAVRAEPTNPSKMRKLFSFTPAWNWTCKDLLLQKLRESQSYLVEDLER [A67K] showed an abundance fitness of -0.446 ± 0.18. In the case of FIDQHRAALIARVTNVEWLLDALYGKVLTDEQYQAVRAEPTNPSKMRKLFSFTPAWNWTCKDLLLQLLRESQSYLVEDLER [A67L], the abundance fitness is reported as 0.033 ± 0.051. FIDQHRAALIARVTNVEWLLDALYGKVLTDEQYQAVRAEPTNPSKMRKLFSFTPAWNWTCKDLLLQNLRESQSYLVEDLER [A67N] showed an abundance fitness of -0.278 ± 0.22.
